Source: IntAct's records for PubMed 24793649

B1: CRISPR-associated endonuclease Cas1 (Escherichia coli (strain K12)), Q46896 (parent)
chain: MTWLPLNPIPLKDRVSMIFLQYGQIDVIDGAFVLIDKTGIRTHIPVGSVACIMLEPGTRVSHAAVRLAAQVGTLLVWVGEAGVRVYASGQPGGARSDKLLYQAKLALDEDLRLKVVRKMFELRFGEPAPARRSVEQLRGIEGSRVRATYALLAKQYGVTWNGRRYDPKDWEKGDTINQCISAATSCLYGVTEAAILAAGYAPAIGFVHTGKPLSFVYDIADIIKFDTVVPKAFEIARRNPGEPDREVRLACRDIFRSSKTLAKLIPLIEDVLAAGEIQPPAPPEDAQPVAIPLPVSLGDAGHRSS
partner: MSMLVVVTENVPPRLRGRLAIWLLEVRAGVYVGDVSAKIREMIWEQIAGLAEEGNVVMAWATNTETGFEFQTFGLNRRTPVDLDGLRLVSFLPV

Variants of: B1
Settings: with cas2_ecoli ygbF

Row | effect of a mutation on the interaction | Variant
1 | disrupting interaction strength | MTWLPLNPIPLKDRVSMIFLQYGQIDVIDGAFVLIDKTGIRTHIPVGSVACIMLEPGTRVSHAAVRLAAQVGTLLVWVGEAGVRVYASGQPGGARSDKLLYQAKLALDEDLRLKVVRKMFELRFGEPAPARRSVEQLRGIEGSRVRATYALLAKQYGVTWNGRRYDPKDWEKGDTINQCISAATSCLYGVTEAAILAAGYAPAIGFVHTGKPLSFVYDIADIIKFDTVVPKAFEIARRNPGEPDREVRLACEDIFRSSKTLAKLIPLIEDVLAAGEIQPPAPPEDAQPVAIPLPVSLGDAGHRSS [R252E]
